The DeepSol protein solubility set

Assay: soluble on expression in E. coli; label from the status in PepcDB or PDB records

| Sequence | soluble on expression in E. coli |
| --- | --- |
| MEQIGAALQQTLEPDAAIRKRGEEALRSLQSNPGYIIQILQLVVNEQQQIAPQIRIAAAVALKNFVKRNWGPAPEVEMGQEDEEQFRSMLLEAMFNTKSNVQEILSNALYLIAQRDFPEKWPDLVPYLSKFLNGADLNHLVASLASMEQIFRKFRFESKSAELWKELKKCLLSTQEPLTLLLRNMMEVGQRKDQLGADEIAQWLRVLLLIAKVYHSLCSQEIPEYFEDHLKDWMPHFLHLVQIDAPTQTSNSGEPTTLDELKHEICEIFTLYSQRYEEEISEFVPDIILAVWNLLKSTGPDTRYDTMVCAALEFLSMVSQRQYYEGHFTGEGVLKTLAENVCVQNLLLRQQDMELFEDEPLDYMKRDIEGTDVGTRRRGAIDLARGLCRRFEAQMLPCLGEIVQNLLGSGDWIKIDIVYSLITAIAVKTETAKSGVTATNPLVDINDFFITQVATHLNADVNQTPILKADALKFAVTFRKQLAPEHLMTAIKSADALLSSNTPILHKYAAYAIEKILLADSNKIFSAQNLPVSSILQNLVTAFDKDAKAQNSPYLIKAILRIIVILDDDTIRHADAIAVKLAQLVESATKNPADSVHTHFLFETICVLITKTRTIGASLDAQLLPLIEVIFREDLEDLIPYALQITGVLVSSCIARNSSIDQFSPFLPFLLSERLWARSANVPAALSVLEVILSVNAQRVVSENSGLILSHLARLLGSKTLDQYGFQLAATILPSIEHFEGSAMTFVLNTMFRRVQSSKTPKFMKLFIVFLCRFTIARSAQDLVQSCENIQTGMFGMLIEKVVCIDLPGLKQTTTGPEKRIIAIGMGNLLADVTQQLVGQYGILSYEVAMLLEAASASDRAVLSPEEEQASMYNAEGEFVNPFCRLSYAPKQPPVAANIANHKAYFAQAVLVRGPGNCPETLRSVPPEIVTYLQSIQQ | not soluble |
| MRIEGELVKAKFVKRLNRFVALVEVDGVQEFAHVPNTGRLKELLVDGAAVMVRKYDKTDRKTRFGLILVRKNGIWVSIDSANAPNRIMYEALVQGKFDKFRDYSEIRREVTVLNSRFDFGLFSEGKEYYIEVKGVTLVENRQGFFPDAPTQRGTRHLEELTKIRQNGKEAGVAFIVQREDADVVRPNDRTDKNFANALRIAAEAGVDLMAYVCKVDAEQRRMDIVREIPVIIK | soluble |
| GPGSMAMRDVIGDPDLLLRKTPANPKYEHVKPVVETGMTAELARFMKNTGAALYRVSGEPFMRIRTRLIGDFVQKQQSQSGEIKDGGFAHPMDEYRAPDTQLPKEYLILDVRSEEEYAACHIKGALHYPKRRMVHAINPLLPEMFNFKNKENKLIVLYDLEEEMTIAQGIGQNVFEKGIDNLAVMTGGLREFVQDYADCIVGESPVPIVPRDTRLLKRAEAVSAARSETQRSAFSHKPKSLSNSLAKPRPR | soluble |
| GINDLDISPIDPQTGGSFDQQGVFVKGYAMLGVTGQKGIDGSPDLDGQDEGESGFYRTTFNCNELPTDECLWAWQKNQDIPQLTSISWSPSSQRTEWVYVRLGYDITQYNFFLDQTEGMTDAETLRQRAEIRFLRALHYWYFLDLFGKAPFKEHFSNDLPVEKKGTELYTYIQNELNEIEADMYEPRQAPFGRADKAANWLLRARLYLNAGVYTGQTDYAKAEEYASKVIGSAYKLCTNYSELFMADNDENENAMQEIILPIRQDGVKTRNYGGSTYLVCGTRVAGMPRMGTTNGWSCIFARAAMVQKFFSNLEDVPMLPADVEIPTKGLDTDEQIDAFDAEHGIRTEDMIKAAGDDRALLYSGVGGGRRKIQTDAISGFTDGLSIVKWQNYRSDGKPVSHATYPDTDIPLFRLAEAYLTRAEAIFRQGGDATGDINELRKRANCTRKVQTVTEQELIDEWAREFYLEGRRRSDLVRFGMFTTNKYLWDWKGGAMNGTSVASYYNKYPIPVSDINNNRNMSQNEGYK | soluble |
| MAHHHHHHMVKETGLYDELGISPDATEPQIRSAYRRKALQYHPDKNSGDPAAAEKFKKVAEAYEILSDAERRKQYDTFGRNGPGGAAGGSGGVPGGGFGSSFGPGTDPMDIFSSFFGFASGGGPGASRQQRPAKPSFILVVLQCSLEELYCGTVKVLQVRRRRLCPSCHGHGTSSGRPSPVCPQCKGNKTVTKALNFGGLTAYQQCRCDHCEGLGKLPIRLPCARCGPVYDAHQRAPLSGTRKPDPLPRGVVVDEKMIKVSIEPGTEDSDALNYVGQGDELPGFGAVGDVLVVIEQLPHPHYHRLNSTDLLLSNCRVPLGCLFRDAFSIPIELLDGRVLRLATPLREGNVPHFLFDSQHVFVVDGEGMPLKGRKGGGAAADANHDDSGAADDVAYRKKGKLYLCVNVVFPSSLTPAQVDIIAKALGGDHERDPAATGEDAGRVVTLQPHHSPAPSWYTVDTEGNAWYQPNGPATAKKKRKATSTTA | not soluble |
| SMPNHQKVVLVGDGAVGSSYAFAMAQQGIAEEFVIVDVVKDRTKGDALDLEDAQAFTAPKKIYSGEYSDCKDADLVVITAGAPQKPGESRLDLVNKNLNILSSIVKPVVDSGFDGIFLVAANPVDILTYATWKFSGFPKERVIGSGTSLDSSRLRVALGKQFNVDPRSVDAYIMGEHGDSEFAAYSTATIGTRPVRDVAKEQGVSDDDLAKLEDGVRNKAYDIINLKGATFYGIGTALMRISKAILRDENAVLPVGAYMDGQYGLNDIYIGTPAIIGGTGLKQIIESPLSADELKKMQDSAATLKKVLNDGLAELENK | soluble |
| MNKVVLLCRPGFEKECAAEITDKAGQREIFGFARVKENAGYVIYECYQPDDGDKLIRELPFSSLIFARQWFVVGELLQHLPPEDRITPIVGMLQGVVEKGGELRVEVADTNESKELLKFCRKFTVPLRAALRDAGVLANYETPKRPVVHVFFIAPGCCYTGYSYSNNNSPFYMGIPRLKFPADAPSRSTLKLEEAFHVFIPADEWDERLANGMWAVDLGACPGGWTYQLVKRNMWVYSVDNGPMAQSLMDTGQVTWLREDGFKFRPTRSNISWMVCDMVEKPAKVAALMAQWLVNGWCRETIFNLKLPMKKRYEEVSHNLAYIQAQLDEHGINAQIQARQLYHDREEVTVHVRRIWAAVGGRRDER | soluble |
| MLFATSGSGSMLQSWNLKTSKRTGSFDAKSSINAVAISPDGNTLATGIRDNAIKLWNINDGKLIHTLTGHQGQVRTVAFSPDGTLLASGSSDGTVKLWNATTGKEINTFTAHKEQVWSVAFNPDGKTLASTGQDGSVKIWGVSPQLEHHHHHH | soluble |
| MAAECATQRAPGSVVELLGKSYPQDDHSNLTRKVLTRVGRNLHNQQHHPLWLIKERVKEHFYKQYVGRFGTPLFSVYDNLSPVVTTWQNFDSLLIPADHPSRKKGDNYYLNRTHMLRAHTSAHQWDLLHAGLDAFLVVGDVYRRDQIDSQHYPIFHQLEAVRLFSKHELFAGIKDGESLQLFEQSSRSAHKQETHTMEAVKLVEFDLKQTLTRLMAHLFGDELEIRWVDCYFPFTHPSFEMEINFHGEWLEVLGCGVMEQQLVNSAGAQDRIGWAFGLGLERLAMILYDIPDIRLFWCEDERFLKQFCVSNINQKVKFQPLSKYPAVINDISFWLPSENYAENDFYDLVRTIGGDLVEKVDLIDKFVHPKTHKTSHCYRITYRHMERTLSQREVRHIHQALQEAAVQLLGVEGRF | soluble |
| MGHHHHHHSHMSFVECPYHSPAERLVAEADEGGPSAITGMGLCFRCLLFSFSGRSGVEGGRVDLNVFGSLGLQPWIGSSRCWGGPCSSALRCGWFSSWPPPSKSAIPIGGGSRGAGRVSRWPPPHWLEAWRVSPRPL | not soluble |
| MSLMMFRYANFQIIKKEQELVISRGIIEKHQVTIPLRKIQAIKIKENIIRQLFGFVTVSIVSAGGGDREKEEGALTILFPMIHKKKLPHMLRTFTPEYTLEENCRRLPRREGHHHHHH | not soluble |
| MGSDKIHHHHHHAAGSSSSSGSSSPSATLTPKDSQATTVFTTTNPSLTLSKVPNIDFGSNATPNGSTDLSVQAAKVDSDLEVANDGIASGWNVQVMNSAFTDSATNNSLYGAKLSFAAAGVAPANADNASPKPAMSAVSLSGDGQNQLVLSAPVKGGLGIWDTEYALSDFKLSVPAGQLPGSYVSNLTWQLSNAPQ | not soluble |
| MGSDKIHHHHHHMKKIAIFLPDLRAGGAEKVALLLSNEFVQKGCAVDVILCTAHGEFLSELDTRINVVDLKSPRLRNAFFPLLRYLKAERPDVLLALMWPLTLLAVTAFKFAKLPGRVVVSDHTTFSQAPLLKKKSTRIFFKLSLPMVYSFANARLAVSEGVANDLATLGNIKRSSITVLHNPVSSDTMRFTKEQNEESWQGFSGKKIVAVGALKWEKDYPTLLKAFALLLKKENAYLSIVGQGTLLSELEAIAEQLGIRKQVNFAGFSTMPSAWMASADLLVLSSSCEGFGNVIVESLDVGTAVVSTDCKSGPREILCDGKYGKLVPVGDVDALAQAMVESLNEQHDMDALKLRAAKFSVDKIAKQYLEVFR | not soluble |
| MKIAIASSGTDLGSEVSRFFGRAPYFMIVEMKKGNIESSEVIENPSASASGGAGIRTAQIIANNGVKAVIASSPGPNAFEVLNELGIKIYRATGTSVEENLKLFTEGNLEEIRSPGSGRGRRRR | soluble |
| MSLRYIYFFGRKINLSERDKIFRDITSKYKCIHDLRCAFDHTEISSFENIDFNIIDDYLFYIELNEKSYTFNDGISLMVQERFWEAHEALEQLWRHSNGLEKSTLRFIIMVCTAFVHLQRGHYSIYHEVMENALKIDTYNEYKCINIKSLKSEIRSGIFNTYFFIKSLKEGHHHHHH | soluble |
| MGSDKIHHHHHHMLLSMNRVSNPFRATLGSTPPYLAGRRHEIEDFAEALDDGPGAHERISLITGLRGVGKTVLLNAFEEEARARSWWVISETATAGFTERIIDALFRKASEILHTHRRKLSGITLPSIGGIQFSDILEHQPKITLRSVLTEILSWQEEIDRKLGQDSVGLLITLDELHYHRREEVIDFGATIQHLVREDLNISVAMAGIPQSIKPLLASEEGKNPVTFLRRANRIDLGLIDNNEVRKALAEPVEKVGVTWESDALTDAAEACGGYPFMIQLIGQQCFKRKRSNFITVGSVAEAAVVAKRKLGQLVHEPALADLSEVDRTFLVAMAADDGPSTMSDIAQRLGVNSQYAGNYRRRLIDAEIITSSGYGQVDFELPYMREYLREHAVVDVFKQ | not soluble |
| MTKLEQIQQWTAQHHASMTYLSNPKTIEYLTGFGSDPIERVLALVVFPDQDPFIFAPALEVEVIKETGWQFPVIGYLDHENPWAMIADQVKQRHVNPEHVAIEKGQLQVARMEALAAQFSAPSFDLDITSFIEHMR | soluble |
| MAKSLRASSHLNAKSVKRRGVFQKAVDAREQRISDKLKEDLLKQKLEDLKKKEEQGIDMDVDEKKSNEEAPRKKISTSGWRDGRHHTYKKAKLMKQSKKKTSFTRF | soluble |
| MGKKNEKIVEEAEKVEAETMEVDEQPQETPQVDDEEDLNVPSKKKMEILDPKSFEQDPSNLTLIMYEEDHTIGNSIKHILSRMDEVEFCGYNVPHPLEDKILFRVQTKDGINALEVLAKAFESVEQIFSTIRGKFEESYEQSQS | soluble |
| MKQTPPLISFITICYNGLDDTCMLIESLRDTISSVSYEIIVVDNASRQDEASLIQERYPFVRTLRSEKNLGFSGGNNLGIQIAQGKYLFLINNDTYLTEDGLPALIERLESDPRIGAVSPKIRFAFPPQSIQFAGYTKLSRYTMRNKALGMGCPDDGTFDTPRPSAYLHGAALMLKREVIWKAGLMPEIYFLYYEELDWCTSMTRAGYQLWYEPRCTIFHKESQSTGRQSPLRTFYMMRNRMLYAWRNLPGMERCLAIAYQMLIVAPKDSLCFVLKGEPKLAKAVWHGVKGFWKLCLEHHHHHH | soluble |
| MTYCHQFLSNLSSLTRFRLHTGNVNGYTQLKVRRFETSAEELAACLDLQLSSNPIADDFKENSCLLLCDNDHIDNYERDEIKITMKVFLSAWDVQQIDQAVTSLKEQLKTKDIEVLILSFPELDLIDGESEEDENNRWFEKVKPLYTYMEKLVETSEIASIGVSDFSARQLKTIIDHFDVKPSINHVRLDGCCQVPPELQALANDNDVQLLVHNDPTPFPTNNIFKTFCEIDSGSQKAVCSPLFETTWLSRYSVWVRKRSIMTSKGYIVQFFRKHD | not soluble |
